Patent publication US20130171170A1 (published 2013)

What was measured:
[1] = target: T1, CD22 variant lacking domain 1 (Δ1), expressed on CHO cells (human, UniProt P20273 139-847); test: flow cytometry on CHO cells expressing the CD22 deletion variant; goat anti-mouse IgG Alexa 488
T1 construct: Membrane protein on stably transformed CHO cells; Numbering of full length precursor CD22beta (Wilson et al. 1991); also called CD22 lacking domain 1
T1 chain: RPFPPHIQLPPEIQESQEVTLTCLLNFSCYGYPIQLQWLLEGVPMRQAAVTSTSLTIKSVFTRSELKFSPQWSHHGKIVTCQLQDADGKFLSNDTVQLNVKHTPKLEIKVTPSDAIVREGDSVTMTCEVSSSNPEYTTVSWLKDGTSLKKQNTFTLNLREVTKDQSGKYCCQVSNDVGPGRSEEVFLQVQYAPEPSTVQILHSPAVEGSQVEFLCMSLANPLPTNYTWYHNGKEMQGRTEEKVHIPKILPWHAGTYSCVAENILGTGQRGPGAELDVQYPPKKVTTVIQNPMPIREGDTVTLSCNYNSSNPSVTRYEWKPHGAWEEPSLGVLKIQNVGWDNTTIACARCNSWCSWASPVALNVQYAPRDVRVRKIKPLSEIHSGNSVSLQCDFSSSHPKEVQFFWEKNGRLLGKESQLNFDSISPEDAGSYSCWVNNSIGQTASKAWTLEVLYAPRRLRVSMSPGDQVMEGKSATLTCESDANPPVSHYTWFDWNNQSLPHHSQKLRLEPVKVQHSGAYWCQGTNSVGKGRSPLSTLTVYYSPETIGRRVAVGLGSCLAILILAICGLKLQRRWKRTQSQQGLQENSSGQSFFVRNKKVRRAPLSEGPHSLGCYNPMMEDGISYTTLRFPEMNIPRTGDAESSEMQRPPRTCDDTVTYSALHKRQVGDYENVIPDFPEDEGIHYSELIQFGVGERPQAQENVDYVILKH
Protocol: (§1) CD22 sequences lacking various of the seven immunoglobulin-like domains of the major CD22 isoform (CD22beta) were cloned and transformed into cells for stable expression. For example, CD22 variants lacking domain 1 (Δ1), domain 2 (Δ2), or domains 3 and 4 (Δ3,4) were cloned, transformed into CHO cells, and expressed on the cells. Control cells expressed CD22beta. Deletions were performed using Stratagene QuikChange XL™ reagent kit. Deletion of domain 1 was performed by deletion of amino acids 22-138; deletion of domain 2 was performed by deletion of amino acids 139-242; and deleted domains 3 and 4 were available as the minor isoform CD22alpha (deletion of amino acids 241-417). All amino acid numbers refer to the numbering of full length precursor CD22beta by Wilson, G. L. et al. (see FIG. 1 in Wilson, G. L. et al., J. Exp. Med. 173:137-146 (1991)). FIG. 14 is a diagram of the deleted domains. Binding was determined by flow cytometry using an isotype control. […] Binding of 5E8.1.8 was detected using biotinylated goat anti-mouse IgG plus streptavidin PE.

[2] = target: T2, CD22 variant lacking domain 2 (Δ2), expressed on CHO cells (human, UniProt P20273 22-847); test: as above
T2 construct: Membrane protein on stably transformed CHO cells; Numbering of full length precursor CD22beta (Wilson et al. 1991); also called CD22 lacking domain 2
T2 chain: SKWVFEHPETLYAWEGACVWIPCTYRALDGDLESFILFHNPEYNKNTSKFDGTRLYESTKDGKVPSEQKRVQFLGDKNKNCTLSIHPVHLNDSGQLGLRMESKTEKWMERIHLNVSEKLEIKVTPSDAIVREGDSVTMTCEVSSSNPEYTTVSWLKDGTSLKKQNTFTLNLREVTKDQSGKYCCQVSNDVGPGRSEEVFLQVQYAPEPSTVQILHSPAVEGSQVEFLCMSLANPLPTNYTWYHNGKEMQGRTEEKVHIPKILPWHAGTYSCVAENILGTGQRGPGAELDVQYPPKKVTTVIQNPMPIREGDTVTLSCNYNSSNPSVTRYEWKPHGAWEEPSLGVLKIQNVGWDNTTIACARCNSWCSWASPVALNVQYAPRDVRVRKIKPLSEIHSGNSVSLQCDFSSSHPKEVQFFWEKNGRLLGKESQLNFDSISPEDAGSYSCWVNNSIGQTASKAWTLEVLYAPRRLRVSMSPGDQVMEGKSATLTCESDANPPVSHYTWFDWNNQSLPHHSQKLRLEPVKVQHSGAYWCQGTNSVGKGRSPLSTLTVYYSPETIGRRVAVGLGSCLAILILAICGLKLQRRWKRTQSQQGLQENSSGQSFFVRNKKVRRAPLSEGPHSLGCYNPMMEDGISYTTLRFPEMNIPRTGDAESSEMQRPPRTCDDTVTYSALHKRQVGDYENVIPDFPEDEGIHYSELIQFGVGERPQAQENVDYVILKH
Protocol: as §1

B1: murine anti-human CD22 10F4.4.1 monoclonal antibody (antibody, V domains shown)
VH: QVQLQQSGPELVKPGASVKISCKASGYEFSRSWMNWVKQRPGQGREWIGRIYPGDGDTNYSGKFKGKATLTADKSSSTAYMQLSSLTSVDSAVYFCARDGSSWDWYFDVWGAGTTVTVSS
VL: DILMTQTPLSLPVSLGDQASISCRSSQSIVHSNGNTFLEWYLQKPGQSPKLLIYKVSNRFSGVPDRFSGSGSGTDFTLKISRVEAEDLGVYYCFQGSQFPYTFGGGTKVEIK
notes: Murine hybridoma antibody (ATCC PTA-7621); also called mu 10F4; Mu 10F4.4.1
B1: no binding [1]; no binding [2].
